Test results reported in patent publication US20130012432A1 (Novo Nordisk, published 2013).
Positions of bridges follow the written chain, without caps; N, C: chain ends. Non-standard residues stand in square brackets, D forms with d. Groups on a side chain read outwards from the residue. Primed or numbered codes have the meaning given here. *: point of attachment. X5 = NH(2-(2-(2-(17-carboxyheptadecanoylamino)ethoxy)ethoxy)ethyl), O=C(O)CCCCCCCCCCCCCCCCC(=O)NCCOCCOCCN*; X6 = (2-(2-(17-carboxyheptadecanoylamino)ethoxy)ethoxy)acetyl, O=C(O)CCCCCCCCCCCCCCCCC(=O)NCCOCCOCC(=O)*; X3 = (2-(2-(15-carboxypentadecanoylamino)ethoxy)ethoxy)acetyl, O=C(O)CCCCCCCCCCCCCCC(=O)NCCOCCOCC(=O)*; biscarboxymethyl = Lys(biscarboxymethyl) = Nepsilon-bis(carboxymethyl)-L-lysine; bis(carboxymethyl) = Lys(biscarboxymethyl) = N6-bis(carboxymethyl)-L-lysine; Palmitoyl(16-(5-tetrazolyl)) = O=C(CCCCCCCCCCCCCCCc1nnn[nH]1)*; biscarboxymethyl(3) = Nepsilon-bis(carboxymethyl) on Lys; Lys(CH2CO2H)2 = N[C@@H](CCCCN(CC(=O)O)CC(=O)O)C(=O)O; C18 diacid = O=C(O)CCCCCCCCCCCCCCCCC(=O)*; Orn = NCCC[C@H](N)C(=O)O; Dab = NCC[C@H](N)C(=O)O; AEEA = NCCOCCOCC(=O)O

B1: Ac-c[Orn-His-D-Phe-Arg-Trp-Asp]-Pro-Ser-Ser-Ser-Lys(biscarboxymethyl)-Ser-Ser-Lys({2-[2-(17-carboxyheptadecanoylamino)ethoxy]ethoxy}acetyl)-NH2 (peptide)
peptide: Ac-[Orn]H[dF]RWDPSSSK(bis(carboxymethyl))SSK([AEEA-C18 diacid])-NH2
modifications: lactam 1-6
B2: Ac-c[Glu-His-D-Phe-Arg-Trp-Dab]-Pro-Pro-Arg-Asp-Lys(biscarboxymethyl)-Lys[(2-{2-[16-(tetrazol-5-yl)hexadecanoylamino]ethoxy}ethoxy)acetyl]-NH2 (peptide)
peptide: Ac-EH[dF]RW[Dab]PPRDK(biscarboxymethyl(3))K([AEEA-Palmitoyl(16-(5-tetrazolyl))])-NH2
modifications: lactam 1-6
B3: Ac-c[Glu-His-D-Phe-Arg-Trp-Orn]-Pro-Pro-Arg-Asp-Lys(biscarboxymethyl)-Lys({2-[2-(15-carboxypentadecanoylamino)ethoxy]ethoxy}acetyl)-NH2 (peptide)
peptide: Ac-EH[dF]RW[Orn]PPRDK(biscarboxymethyl)K(X3)-NH2
modifications: lactam 1-6
B4: Ac-c[Asp-His-D-Phe-Arg-Trp-Lys]-Pro-Pro-Arg-Asp-Lys(biscarboxymethyl)-Lys[(2-{2-[16-(tetrazol-5-yl)hexadecanoylamino]ethoxy}ethoxy)acetyl]-NH2 (peptide)
peptide: Ac-DH[dF]RWKPPRD[Lys(CH2CO2H)2]K([AEEA-Palmitoyl(16-(5-tetrazolyl))])-NH2
modifications: lactam 1-6
SMILES: CC(=O)N[C@H]1CC(=O)NCCCC[C@@H](C(=O)N2CCC[C@H]2C(=O)N2CCC[C@H]2C(=O)N[C@@H](CCCNC(=N)N)C(=O)N[C@@H](CC(=O)O)C(=O)N[C@@H](CCCCN(CC(=O)O)CC(=O)O)C(=O)N[C@@H](CCCCNC(=O)COCCOCCNC(=O)CCCCCCCCCCCCCCCc2nnn[nH]2)C(N)=O)NC(=O)[C@H](Cc2c[nH]c3ccccc23)NC(=O)[C@H](CCCNC(=N)N)NC(=O)[C@@H](Cc2ccccc2)NC(=O)[C@H](Cc2c[nH]cn2)NC1=O
B5: Ac-c[Orn-His-D-Phe-Arg-Trp-Asp]-Pro-Ser-Ser-Ser-Lys(biscarboxymethyl)-Ser-Ser-Lys[(2-{2-[16-(tetrazol-5-yl)hexadecanoylamino]ethoxy}ethoxy)acetyl]-NH2 (peptide)
peptide: Ac-[Orn]H[dF]RWDPSSSK(bis(carboxymethyl))SSK([AEEA-Palmitoyl(16-(5-tetrazolyl))])-NH2
modifications: lactam 1-6
B6: Ac-c[Glu-His-D-Phe-Arg-Trp-Orn]-D-Pro-D-Pro-Arg-Asp-Lys(biscarboxymethyl)-Lys[(2-{2-[16-(tetrazol-5-yl)hexadecanoylamino]ethoxy}ethoxy)acetyl]-NH2 (peptide)
peptide: Ac-EH[dF]RW[Orn][dP][dP]RDK(biscarboxymethyl(3))K([AEEA-Palmitoyl(16-(5-tetrazolyl))])-NH2
modifications: lactam 1-6
B7: Ac-c[Orn-His-D-Phe-Arg-Trp-Asp]-Pro-Pro-Arg-Glu-Lys(biscarboxymethyl)-Lys({2-[2-(17-carboxyheptadecanoylamino)ethoxy]ethoxy}acetyl)-NH2 (peptide)
peptide: Ac-[Orn]H[dF]RWDPPREK(biscarboxymethyl)K(X6)-NH2
modifications: lactam 1-6
B8: Ac-c[Dab-His-D-Phe-Arg-Trp-Asp]-Pro-Ser-Ser-Ser-Lys(biscarboxymethyl)-Ser-Ser-NH(2-{2-[2-(17-carboxyheptadecanoylamino)ethoxy]ethoxy}ethyl) (peptide)
peptide: Ac-[Dab]H[dF]RWDPSSSK(biscarboxymethyl(3))SS-X5
modifications: lactam 1-6
B9: Ac-c[Glu-His-D-Phe-Arg-Trp-Orn]-Pro-Pro-Arg-Asp-Lys(biscarboxymethyl)-Lys({2-[2-(17-carboxyheptadecanoylamino)ethoxy]ethoxy}acetyl)-NH2 (peptide)
peptide: Ac-EH[dF]RW[Orn]PPRDK(biscarboxymethyl)K(X6)-NH2
modifications: lactam 1-6
B10: Ac-c[Orn-His-D-Phe-Arg-Trp-Asp]-Pro-Pro-Arg-Glu-Lys(biscarboxymethyl)-Lys({2-[2-(15-carboxypentadecanoylamino)ethoxy]ethoxy}acetyl)-NH2 (peptide)
peptide: Ac-[Orn]H[dF]RWDPPREK(biscarboxymethyl)K(X3)-NH2
modifications: lactam 1-6

Experiments:
[1] = target: T1, MC1 receptor (UniProt Q01726 1-317, limits assumed); test: 125I-NDP-α-MSH displacement, BHK-MC1 membranes (Assay IV);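 also: membrane incubations stopped by filtration, retained radioactivity counted, Ki fitted by nonlinear regression to binding curves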
T1 construct: whole, on cells; also called melanocortin receptor subtype 1; melanocortin receptor 1
T1 sequence (Q01726 whole entry): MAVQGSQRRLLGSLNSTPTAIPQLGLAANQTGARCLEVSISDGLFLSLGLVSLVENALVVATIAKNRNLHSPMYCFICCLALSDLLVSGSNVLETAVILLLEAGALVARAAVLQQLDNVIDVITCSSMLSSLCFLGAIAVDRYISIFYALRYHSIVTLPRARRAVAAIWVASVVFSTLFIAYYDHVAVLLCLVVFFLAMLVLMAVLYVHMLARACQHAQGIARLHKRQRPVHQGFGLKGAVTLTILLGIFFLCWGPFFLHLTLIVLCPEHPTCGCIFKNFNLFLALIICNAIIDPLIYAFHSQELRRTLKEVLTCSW
Protocol: The MC1 receptor binding assay was performed on BHK cell membranes stably expressing the MC1 receptor. […] Test compounds were dissolved in DMSO. […] Alternatively, HSA may be substituted with ovalbumin. The samples were incubated at 30° C. for 90 min. in Costar round-bottom microtiter plates. Incubation was terminated by filtration on a Packard harvester filtermate. […] The filters were washed with ice-cold 0.9% NaCl 8-10 times. […] The plates were counted in a Topcounter (1 min/well).
The data were analysed by non-linear regression analysis of binding curves, using the Windows™ program GraphPad™ Prism (GraphPad Software, USA).

[2] = target: T2, human MC4 receptor (human, UniProt P32245 1-332); test: 125I-NDP-α-MSH displacement, BHK-human MC4 membranes (Assay V);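 also: Filter-retained radioactivity read by gamma counting, with affinity obtained through non-linear regression fitting of the binding curves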
T2 construct: whole, on cells; Assayed as membranes of BHK cells stably expressing the receptor; also called melanocortin receptor subtype 4; melanocortin receptor 4
T2 sequence (P32245 whole entry): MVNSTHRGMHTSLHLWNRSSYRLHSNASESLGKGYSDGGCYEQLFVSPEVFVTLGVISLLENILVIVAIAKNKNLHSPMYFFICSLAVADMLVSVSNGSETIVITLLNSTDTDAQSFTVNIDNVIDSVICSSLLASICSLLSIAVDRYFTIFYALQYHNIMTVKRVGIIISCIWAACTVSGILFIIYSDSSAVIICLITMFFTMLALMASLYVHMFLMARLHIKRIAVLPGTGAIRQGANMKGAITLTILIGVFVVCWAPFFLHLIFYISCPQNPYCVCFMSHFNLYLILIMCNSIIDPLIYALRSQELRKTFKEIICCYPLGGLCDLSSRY

Binder | Ki [1] [µM] | Ki [2] [nM]
B1 | 0.141 | 0.8
B2 | 3.42 | 39
B3 | 3.97 | 5.8
B4 | 0.279 | 13
B5 | 5.61 | 0.9
B6 | 8.84 | 4.6
B7 | 1.94 | 0.8
B8 | 9.13 | 10.8
B9 | 4.69 | 0.9
B10 | 2.14 | 2.2
